Reference: article PMC6696043, “Aptamers in Education: Undergraduates Make Aptamers and Acquire 21st Century Skills Along the Way”

How the values were obtained:
[1] = target: calf intestinal alkaline phosphatase (CIAP) (calf) (UniProt P19111); experiment: 32P-RNA binding assay; conditions: RNA 5 nM, triplicate; Selection buffer 20 mM HEPES pH 7.5, 150 mM NaCl, 5 mM MgCl2, room temperature; binding assay conditions not separately stated (refers to cited protocol)
[2] = target: T1, calf intestinal alkaline phosphatase (CIAP) (calf, UniProt P19111 20-506); experiment: 32P-RNA binding assay; RNA 5 nM, triplicate; Selection buffer 20 mM HEPES pH 7.5, 150 mM NaCl, 5 mM MgCl2, room temperature; binding assay conditions not separately stated (refers to cited protocol); conditions: protein: commercial, tags: biotinylated (Pierce 29339, 69 kDa), chain copies: 2, label: 32P
[3] = target: T1, calf intestinal alkaline phosphatase …; experiment: 32P-RNA bead binding assay; not above no-protein beads; prefers naked beads; Selection buffer 20 mM HEPES pH 7.5, 150 mM NaCl, 5 mM MgCl2, room temperature; binding assay conditions not separately stated (refers to cited protocol); conditions: protein: commercial; tags: biotinylated (Pierce 29339, 69 kDa); chain copies: 2; label: 32P
[4] = target: T1, calf intestinal alkaline phosphatase …; experiment: 32P-RNA binding assay; Selection buffer 20 mM HEPES pH 7.5, 150 mM NaCl, 5 mM MgCl2, room temperature; binding assay conditions not separately stated (refers to cited protocol); conditions: protein: commercial; tags: biotinylated (Pierce 29339, 69 kDa); chain copies: 2; label: 32P; stem-loop, GGG/CCC closing stem
[5] = target: T2, human tissue-nonspecific alkaline phosphatase (human, UniProt P05186 18-501); experiment: 32P-RNA binding assay; up to 250 nM protein, single point; Selection buffer 20 mM HEPES pH 7.5, 150 mM NaCl, 5 mM MgCl2, room temperature; binding assay conditions not separately stated (refers to cited protocol); conditions: protein: recombinant; chain copies: 2; label: 32P; stem-loop, GGG/CCC closing stem
T2 sequence: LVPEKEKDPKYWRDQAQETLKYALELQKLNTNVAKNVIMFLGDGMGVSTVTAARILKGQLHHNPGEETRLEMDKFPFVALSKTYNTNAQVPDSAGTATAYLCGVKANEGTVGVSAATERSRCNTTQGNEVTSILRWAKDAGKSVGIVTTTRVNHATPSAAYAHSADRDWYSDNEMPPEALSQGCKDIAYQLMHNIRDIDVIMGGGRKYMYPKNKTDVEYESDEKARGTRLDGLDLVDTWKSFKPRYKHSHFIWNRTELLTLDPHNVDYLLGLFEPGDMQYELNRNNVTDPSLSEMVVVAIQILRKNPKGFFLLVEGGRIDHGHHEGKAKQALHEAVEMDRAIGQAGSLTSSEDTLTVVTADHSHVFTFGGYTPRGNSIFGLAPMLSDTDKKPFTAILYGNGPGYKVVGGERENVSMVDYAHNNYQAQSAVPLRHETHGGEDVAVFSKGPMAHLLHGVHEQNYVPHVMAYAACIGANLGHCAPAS

[6] = target: human intestinal alkaline phosphatase (human, UniProt P09923 20-503); experiment: as above; conditions: protein: recombinant; chain copies: 2; label: 32P; stem-loop, GGG/CCC closing stem
[7] = target: T1, calf intestinal alkaline phosphatase …; experiment: 32P-RNA bead binding assay; not above no-protein beads; Selection buffer 20 mM HEPES pH 7.5, 150 mM NaCl, 5 mM MgCl2, room temperature; binding assay conditions not separately stated (refers to cited protocol); conditions: protein: commercial; tags: biotinylated (Pierce 29339, 69 kDa); chain copies: 2; label: 32P

T1 sequence (P19111 20-506): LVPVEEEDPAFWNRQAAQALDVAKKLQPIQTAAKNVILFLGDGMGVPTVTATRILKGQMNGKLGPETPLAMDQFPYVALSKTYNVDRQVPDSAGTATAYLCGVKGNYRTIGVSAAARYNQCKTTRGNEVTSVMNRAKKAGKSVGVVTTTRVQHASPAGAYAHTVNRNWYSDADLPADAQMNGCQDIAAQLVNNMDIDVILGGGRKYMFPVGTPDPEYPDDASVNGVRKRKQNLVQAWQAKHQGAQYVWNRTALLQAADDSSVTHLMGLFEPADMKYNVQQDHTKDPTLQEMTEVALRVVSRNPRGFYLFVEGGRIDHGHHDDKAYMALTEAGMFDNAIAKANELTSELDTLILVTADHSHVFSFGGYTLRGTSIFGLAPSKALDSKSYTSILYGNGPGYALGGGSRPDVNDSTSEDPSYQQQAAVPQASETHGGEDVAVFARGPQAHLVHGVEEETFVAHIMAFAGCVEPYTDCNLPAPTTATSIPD
calf intestinal alkaline phosphatase (CIAP) (calf), sequence (P19111 20-506): as above
human intestinal alkaline phosphatase, sequence (P09923 20-503): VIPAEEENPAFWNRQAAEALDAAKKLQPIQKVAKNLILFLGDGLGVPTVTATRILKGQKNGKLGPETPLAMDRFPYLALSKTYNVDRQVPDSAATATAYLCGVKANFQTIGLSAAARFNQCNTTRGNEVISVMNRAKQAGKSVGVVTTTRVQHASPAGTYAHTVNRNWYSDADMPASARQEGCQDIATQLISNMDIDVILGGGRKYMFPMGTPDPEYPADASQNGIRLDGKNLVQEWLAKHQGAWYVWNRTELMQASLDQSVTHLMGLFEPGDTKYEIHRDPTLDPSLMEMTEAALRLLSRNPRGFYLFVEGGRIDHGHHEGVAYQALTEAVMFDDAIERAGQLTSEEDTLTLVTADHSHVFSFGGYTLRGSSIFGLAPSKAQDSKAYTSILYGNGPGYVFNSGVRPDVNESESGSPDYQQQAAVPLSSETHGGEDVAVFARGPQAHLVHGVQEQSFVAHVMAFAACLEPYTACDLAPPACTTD

For “GGGUUUACCUAGGUGUAGAUGCUUCWAUUGAUAUGUUAUAACUGAACUCAACAUAAGGAUAUGAUGUAUGAUCAAGUGACGUCUGAACUGCUUCGAA [aptamer clone 4-9]”, the Kd [1] was 9.4 nM.

B1: aptamer clone 4-3 (structured_RNA)
RNA: GGGUUUACCUAGGUGUAGAUGCUGUAUAUAGCGAACUCAACAUAAGGUAUAAUUACAAUUUCUAUACUUCUUCAAGUGACGUCUGAACUGCUUCGAA
B1 gave a Kd ([2]; VDH motif in loop) of 5 nM.

B2: clone c2-1 (structured_RNA)
RNA: GGGUUUACCUAGGUGUAGAUGCUGAUAGAUUUCCCCUGACUUAGGAGCUCAUUAGAUUUUUAUUGUGUGGGGCAAGUGACGUCUGAACUGCUUCGAA
B2: no binding [3].

B3: minimized aptamer variant 3.1 (structured_RNA)
RNA: GGGUAGAUGCUGUAUAUAGCGAACUCAACAUAAGGUAUAAUUACAAUUUCUACCC
For B3, the Kd [4] was 6.7 nM, the binding result [5] was “no binding” and the binding result [6] was “no binding”.

B4: clone c2-4 (structured_RNA)
RNA: GGGUUUACCUAGGUGUAGAUGCUUCUUCACUCCUUAUGAACACGUAGCGCUCAAUCAUCUCUAAUUAAUUCUCAAGUGACGUCUGAACUGCUUCGAA
B4: no binding [7].

B5: aptamer clone 3-6 (structured_RNA)
RNA: GGGUUUACCUAGGUGUAGAUGCUCUGCCCUUCAGAUUUAUCGAUGACCGUUGAACUCAACAUAAGACCUUCCAAAGUGACGUCUGAACUGCUUCGAA
Molecule B5 has a Kd ([2]; VDH motif in loop and stem) of 10.8 nM.
